B1: OsHPPDm-F383W-02: nucleotide sequence encoding Oryza sativa HPPD with F383W; vector DBN11756 (nucleic acid)
DNA: ATGCCACCCACGCCAACACCAACGGCCACCACTGGTGCCGTCTCGGCCGCGGCAGCGGCCGGTGAGAATGCTGGTTTCAGGCTAGTCGGCCACCGCCGCTTCGTGAGGGCAAATCCAAGATCTGATCGGTTCCAAGCACTTGCTTTCCACCATGTTGAGCTGTGGTGCGCTGACGCCGCTTCAGCTGCCGGGAGGTTTGCTTTTGCTTTAGGGGCGCCGCTCGCCGCAAGGAGTGATCTTTCCACCGGAAATTCTGCTCATGCTTCTCTTCTACTTAGATCAGCAAGTGTTGCATTTCTGTTCACTGCACCTTATGGCGGAGACCATGGTGTCGGGGCCGATGCTGCAACAACAGCTAGCATACCATCATTTTCTCCCGGCGCCGCAAGAAGATTTGCAGCCGATCATGGCCTGGCAGTTCATGCTGTGGCATTGAGGGTCGCCGACGCGGCTGATGCGTTCCGCGCCAGCGTGGCTGCTGGAGCTAGGCCGGCGTTCCAGCCTGCTGACCTTGGGGGTGGATTTGGATTGGCGGAGGTTGAATTATATGGTGATGTTGTGCTCCGTTTTGTTTCCCATCCAGATGGTGCTGATGCTCCATTTCTACCTGGATTTGAAGGGGTGTCAAACCCCGGCGCGGTGGATTATGGACTGCGTCGATTTGATCACGTGGTAGGTAATGTTCCTGAGTTGGCTCCCGTGGCGGCCTACATTTCAGGCTTTACTGGCTTCCATGAATTTGCCGAGTTCACCGCGGAAGATGTGGGAACTGCTGAAAGTGGATTGAACTCTGTTGTCCTGGCGAACAATGCAGAGACTGTATTGCTCCCCTTGAATGAGCCTGTGCACGGCACCAAACGGCGATCTCAAATTCAGACATACCTCGACCACCACGGGGGCCCTGGTGTTCAGCATATTGCTCTAGCCAGCGACGACGTACTGGGAACACTGAGGGAGATGAGAGCCCGTTCCGCCATGGGTGGCTTTGAGTTTCTGGCCCCTCCGCCGCCAAACTACTACGACGGCGTCAGACGGCGGGCGGGTGACGTCTTGAGTGAGGAGCAGATCAATGAATGTCAAGAACTTGGGGTTCTTGTTGATAGAGATGATCAAGGAGTGCTCCTCCAAATATTCACAAAACCTGTTGGCGACCGCCCGACCTTCTGGCTTGAAATGATCCAAAGGATCGGCTGCATGGAGAAGGATGAATCGGGCCAGGAGTACCAGAAGGGTGGGTGTGGTGGCTTTGGGAAGGGCAACTTCAGCGAGCTGTTCAAGTCAATTGAAGAATATGAAAAATCATTGGAGGCAAAGCAAGCTCCGACGGTGCAGGGAAGCTGA
modifications: OsHPPDm-F383W-02 Nucleotide Sequence
notes: vector DBN11756
B2: SbHPPD-02: nucleotide sequence encoding wild-type Sorghum bicolor HPPD; vector DBN11758 (nucleic acid)
DNA: ATGCCGCCCACTCCAACAACTGCTGCTGCGACGGGAGCAGCTGTCGCCGCTGCTTCTGCTGAGCAGGCTGCCTTCAGGCTCGTCGGGCACAGAAATTTTGTTCGTGTAAATCCAAGGAGTGATAGGTTCCACACCTTGGCTTTTCACCACGTGGAGTTGTGGTGTGCTGATGCAGCCTCGGCAGCGGGGCGCTTCTCGTTTGGTCTCGGTGCTCCGCTCGCCGCAAGATCTGATCTTAGCACTGGAAACACAGCGCATGCCTCCCTGCTCCTGCGCTCTGGCGCGCTGGCGTTCCTCTTCACGGCGCCATATGCTCACGGCGCCGACGCCGCCACCGCGTCATTGCCGTCTTTTAGTGCAGCCGAAGCAAGAAGATTTGCAGCAGACCACGGCCTCGCCGTAAGGGCCGTGGCCTTACGTGTCGCCGATGCCGAAGATGCTTTCCGCGCCTCTGTAGCAGCTGGAGCAAGGCCAGCATTTGAACCTGTTGAATTGGGGTTAGGATTCCGTCTTGCAGAAGTTGAGCTTTATGGCGACGTTGTTTTGAGATACGTTTCATATCCTGATGACGCTGACGCTAGCTTCTTGCCTGGTTTTGTGGGGGTGACATCACCTGGGGCAGCAGATTATGGTCTCAGGCGGTTTGATCATATTGTTGGAAACGTTCCTGAACTCGCGCCGGCGGCAGCCTACTTCGCCGGTTTCACTGGGTTTCATGAATTTGCTGAATTCACAGCCGAGGATGTCGGCACCACCGAGAGTGGACTGAACTCCATGGTGCTGGCCAACAATGCAGAGAATGTCCTTCTTCCCTTGAATGAACCAGTTCATGGAACAAAAAGGCGTTCCCAAATACAAACATACCTCGACCATCATGGTGGACCAGGCGTTCAGCATATGGCTCTCGCTAGTGACGATGTTCTACGAACCCTGCGAGAGATGCAGGCGCGGTCTGCAATGGGAGGATTTGAGTTCATGGCACCTCCTGCCCCTGAATATTATGATGGTGTTCGGAGAAGGGCAGGTGATGTGCTAACTGAAGCTCAAATCAAGGAGTGCCAGGAGCTTGGCGTGCTGGTCGATCGGGATGATCAAGGTGTGCTTCTGCAGATTTTTACTAAACCAGTGGGTGACCGCCCCACGCTGTTCCTAGAGATCATCCAGAGAATAGGGTGCATGGAGAAGGACGAAAAAGGACAAGAGTACCAGAAGGGAGGTTGTGGCGGCTTTGGAAAAGGGAACTTCTCCCAATTATTCAAGTCAATTGAAGACTATGAAAAGAGTTTGGAGGCTAAGCAAGCTGCAGCCGCCCAGGGCAGCTGA
modifications: SbHPPD-02 Nucleotide Sequence
notes: vector DBN11758

Experiments:
Assay type in all cases: in vivo
[1] = test system: Arabidopsis thaliana T1 plants; assay: Topramezone tolerance of transgenic Arabidopsis thaliana T1 plants (spray, bleached leaf area grade, damage score); conditions: 7 DAT, Table 4; for Classification and statistics of the grade of pesticide damage: Grade 0 / Classification and statistics of the grade of pesticide damage: Grade 1 / Classification and statistics of the grade of pesticide damage: Grade 2 / Classification and statistics of the grade of pesticide damage: Grade 3: number of plants; for Scores: pesticide damage score 0-100
Procedure, shortened: (§1)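 Damage graded 0–3 from the proportion of bleached leaf area 7 days after spraying. Plants were glufosinate-selected T1 lines, 18 days after sowing, plus vector and wild-type controls. Rates: mesotrione 52.5–420, isoxaflutole 35–280, topramezone 25–200 g ai/ha, with water (0×).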

[2] = test system: Arabidopsis thaliana T1 plants; assay: Isoxaflutole tolerance of transgenic Arabidopsis thaliana T1 plants (spray, bleached leaf area grade, damage score); design: Scores (pesticide damage): scale not given here; conditions: spray, Arabidopsis thaliana T1 plants; for Classification and statistics of the grade of pesticide damage: Grade 0 (number of plants) / Classification and statistics of the grade of pesticide damage: Grade 1 (number of plants) / Classification and statistics of the grade of pesticide damage: Grade 2 (number of plants) / Classification and statistics of the grade of pesticide damage: Grade 3 (number of plants): 16 plants
Procedure, shortened: as §1

[3] = test system: Arabidopsis thaliana T1 plants; assay: Mesotrione tolerance of transgenic Arabidopsis thaliana T1 plants (spray, bleached leaf area grade, damage score); design: Scores: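 damage score 0-100 computed as Σ(N×S)/(T×M)×100 over grades 0-3 with higher meaning more damage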; conditions: Arabidopsis thaliana T1 plants; for Grade 0 (classification and statistics of the grade of pesticide damage; number of plants) / Grade 1 (classification and statistics of the grade of pesticide damage; number of plants) / Grade 2 (classification and statistics of the grade of pesticide damage; number of plants) / Grade 3 (classification and statistics of the grade of pesticide damage; number of plants): 16 plants
Procedure, shortened: as §1

[4] = isoxaflutole 35 g ai/ha (0.5x field concentration)
[5] = isoxaflutole 70 g ai/ha (1x field concentration)

Row | Molecule | Classification and statistics of the grade of pesticide damage: Grade 0 ([1]; topramezone 25 g ai/ha (1×)) | Classification and statistics of the grade of pesticide damage: Grade 1 ([1]; topramezone 25 g ai/ha (1×)) | Classification and statistics of the grade of pesticide damage: Grade 2 ([1]; topramezone 25 g ai/ha (1×)) | Classification and statistics of the grade of pesticide damage: Grade 3 ([1]; topramezone 25 g ai/ha (1×)) | Classification and statistics of the grade of pesticide damage: Grade 0 ([1]; topramezone 100 g ai/ha (4×)) | Classification and statistics of the grade of pesticide damage: Grade 1 ([1]; topramezone 100 g ai/ha (4×)) | Classification and statistics of the grade of pesticide damage: Grade 2 ([1]; topramezone 100 g ai/ha (4×)) | Classification and statistics of the grade of pesticide damage: Grade 3 ([1]; topramezone 100 g ai/ha (4×)) | Scores ([1]; topramezone 25 g ai/ha (1×)) | Scores ([1]; topramezone 100 g ai/ha (4×)) | Resistance evaluation ([1]; topramezone 25 g ai/ha (1×)) | Resistance evaluation ([1]; topramezone 100 g ai/ha (4×)) | Resistance evaluation [2, 4] | Scores (pesticide damage) [2, 4] | Classification and statistics of the grade of pesticide damage: Grade 0 (number of plants) [2, 4] | Classification and statistics of the grade of pesticide damage: Grade 1 (number of plants) [2, 4] | Classification and statistics of the grade of pesticide damage: Grade 2 (number of plants) [2, 4] | Classification and statistics of the grade of pesticide damage: Grade 3 (number of plants) [2, 4] | Resistance evaluation [2, 5] | Scores (pesticide damage) [2, 5] | other results
1 | B1 | 0 | 3 | 9 | 4 | 0 | 0 | 0 | 16 | 69 | 100 | non-resistant (non-resistant plants (scores 68-100)) | non-resistant (non-resistant plants (scores 68-100)) | Non-resistant | 94 | 0 | 0 | 3 | 13 | Non-resistant | 100 | Classification and statistics of the grade of pesticide damage: Grade 0 (number of plants) [2, 5]: 0; Classification and statistics of the grade of pesticide damage: Grade 1 (number of plants) [2, 5]: 0; Classification and statistics of the grade of pesticide damage: Grade 2 (number of plants) [2, 5]: 0; Classification and statistics of the grade of pesticide damage: Grade 3 (number of plants) [2, 5]: 16; Resistance evaluation ([3]; mesotrione 52.5 g ai/ha): Non-resistant; Scores ([3]; mesotrione 52.5 g ai/ha): 85; Grade 0 (classification and statistics of the grade of pesticide damage; number of plants) ([3]; mesotrione 52.5 g ai/ha): 0; Grade 1 (classification and statistics of the grade of pesticide damage; number of plants) ([3]; mesotrione 52.5 g ai/ha): 0; Grade 2 (classification and statistics of the grade of pesticide damage; number of plants) ([3]; mesotrione 52.5 g ai/ha): 7; Grade 3 (classification and statistics of the grade of pesticide damage; number of plants) ([3]; mesotrione 52.5 g ai/ha): 9; Resistance evaluation ([3]; mesotrione 105 g ai/ha): Non-resistant; Scores ([3]; mesotrione 105 g ai/ha): 100; Grade 0 (classification and statistics of the grade of pesticide damage; number of plants) ([3]; mesotrione 105 g ai/ha): 0; Grade 1 (classification and statistics of the grade of pesticide damage; number of plants) ([3]; mesotrione 105 g ai/ha): 0; Grade 2 (classification and statistics of the grade of pesticide damage; number of plants) ([3]; mesotrione 105 g ai/ha): 0; Grade 3 (classification and statistics of the grade of pesticide damage; number of plants) ([3]; mesotrione 105 g ai/ha): 16
2 | B2 | 0 | 0 | 0 | 16 | 0 | 0 | 0 | 16 | 100 | 100 | non-resistant (non-resistant plants (scores 68-100)) | non-resistant (non-resistant plants (scores 68-100)) | Non-resistant | 100 | 0 | 0 | 0 | 16 | Non-resistant | 100 | Classification and statistics of the grade of pesticide damage: Grade 0 (number of plants) [2, 5]: 0; Classification and statistics of the grade of pesticide damage: Grade 1 (number of plants) [2, 5]: 0; Classification and statistics of the grade of pesticide damage: Grade 2 (number of plants) [2, 5]: 0; Classification and statistics of the grade of pesticide damage: Grade 3 (number of plants) [2, 5]: 16; Resistance evaluation ([3]; mesotrione 52.5 g ai/ha): Non-resistant; Scores ([3]; mesotrione 52.5 g ai/ha): 100; Grade 0 (classification and statistics of the grade of pesticide damage; number of plants) ([3]; mesotrione 52.5 g ai/ha): 0; Grade 1 (classification and statistics of the grade of pesticide damage; number of plants) ([3]; mesotrione 52.5 g ai/ha): 0; Grade 2 (classification and statistics of the grade of pesticide damage; number of plants) ([3]; mesotrione 52.5 g ai/ha): 0; Grade 3 (classification and statistics of the grade of pesticide damage; number of plants) ([3]; mesotrione 52.5 g ai/ha): 16; Resistance evaluation ([3]; mesotrione 105 g ai/ha): Non-resistant; Scores ([3]; mesotrione 105 g ai/ha): 100; Grade 0 (classification and statistics of the grade of pesticide damage; number of plants) ([3]; mesotrione 105 g ai/ha): 0; Grade 1 (classification and statistics of the grade of pesticide damage; number of plants) ([3]; mesotrione 105 g ai/ha): 0; Grade 2 (classification and statistics of the grade of pesticide damage; number of plants) ([3]; mesotrione 105 g ai/ha): 0; Grade 3 (classification and statistics of the grade of pesticide damage; number of plants) ([3]; mesotrione 105 g ai/ha): 16

Source: patent US20250043302A1, “MUTATED HYDROXYPHENYLPYRUVATE DIOXYGENASE POLYPEPTIDE, AND CODING GENE AND USE THEREOF” (BEIJING DABEINONG BIOTECHNOLOGY CO., LTD., priority 2021, published 2025)
